Measured values as given in PMC9839326 (Science Advances, 2023).

Molecular target: cytochrome f (Cyt f) of spinach Cyt b6f (spinach (Spinacia oleracea), UniProt P16013 36-320)
Assay: cryo-EM structure

Sequence of cytochrome f (Cyt f) of spinach Cyt b6f (P16013 36-320): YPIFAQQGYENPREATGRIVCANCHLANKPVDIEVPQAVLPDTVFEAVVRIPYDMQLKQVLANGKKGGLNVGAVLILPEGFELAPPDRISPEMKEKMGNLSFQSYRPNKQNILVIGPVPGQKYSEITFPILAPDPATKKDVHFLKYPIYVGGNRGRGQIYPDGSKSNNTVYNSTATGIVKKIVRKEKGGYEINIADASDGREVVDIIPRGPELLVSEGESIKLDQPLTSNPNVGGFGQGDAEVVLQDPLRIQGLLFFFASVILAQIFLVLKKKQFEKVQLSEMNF

binding result: binds
B1: plastocyanin (PC) from spinach (natural protein)
chain: VEVLLGGGDGSLAFLPGDFSVASGEEIVFKNNAGFPHNVVFDEDEIPSGVDAAKISMSEEDLLNAPGETYKVTLTEKGTYKFYCSPHQGAGMVGKVTVN
